Data on three molecules can be found in patent US20240415974A1.

Test [1] concerns the target mannose 6-phosphate receptor (M6PR) on K-562 cells. Nature of the test: cell-based or functional assay.
The target is the same in test [2]. Nature of the test: flow cytometry on K-562 cells expressing M6PR, detection with HSA-biotin and streptavidin-phycoerythrin.
Test [3] has the same target. The experiment in a line: flow cytometry on K-562 cells expressing M6PR; reference T028100075-bis-M6P(1x). On the technique in general: Flow cytometry measures light scatter and fluorescence of single cells or particles in a stream.

Positions count from the first letter of the chain named. Names may count otherwise. Some results are limits rather than exact numbers.

B1: T028100069-bis-M6P(3x) (bispecific antibody)
chain: DVQLVESGGGVVQPGGSLRLSCAASGFTFRSFGMSWVRQAPGKGPEWVSSISGSGSDTLYADSVKGRFTISRDNSKNTLYLQMNSLRPEDTALYYCTIGGSLSRSSQGTLVTVSSGGGGSGGGGSGGGGSEVQLVESGGGLVQAGGSLSISCAASGGSLSNYVLGWFRQAPGCEREFVAAINWRGDITIGPPNVEGRFTISRDNAKNTGYLQMNSLAPDDTAVYYCGAGTPLNPGAYIYCWSYDYWGCGTLVTVSS
modifications: bisM6P-PEG4-maleimide conjugated to the thiols of the three engineered Cys of the ISVD-based building block (Kabat positions 43, 100f and 105 of SEQ ID NO.: 80); DOL by mass spec 2.90
As usually defined, the EC50 is the concentration giving half of the maximal effect. A high value points to lower potency in that assay. B1 registered an internalization potency on K-562 cells, EC50 [M] (HSA-pHAb, flow cytometry) in test [1] of 3.86e-09 M. This molecule showed an EC50 in test [2] of 0.143 nM. In test [3], this molecule yielded an increase in specific cell binding against the molecule with a single bisM6P (DOL 1) (orders of magnitude) above 2.

B2: T028100070-bis-M6P(3x) (bispecific antibody)
chain: B1 chain with K206C, G235C, C240D, C248R
modifications: bisM6P-PEG4-maleimide conjugated to the thiols of the three engineered Cys of the ISVD-based building block (Kabat positions 43, 75 and 100a of SEQ ID NO.: 81); DOL by mass spec 2.84
In turn, B2 returned an internalization potency on K-562 cells, EC50 [M] (HSA-pHAb, flow cytometry) in test [1] of 2.88e-09 M. This molecule also came in with an EC50 in test [2] of 0.154 nM. In test [3], this molecule yielded an increase in specific cell binding against the molecule with a single bisM6P (DOL 1) (orders of magnitude) above 2.

B3: T028100075-bis-M6P(1x) (bispecific antibody)
chain: DVQLVESGGGVVQPGGSLRLSCAASGFTFRSFGMSWVRQAPGKGPEWVSSISGSGSDTLYADSVKGRFTISRDNSKNTLYLQMNSLRPEDTALYYCTIGGSLSRSSQGTLVTVSSGGGGSGGGGSGGGGSEVQLVESGGGLVQAGGSLSISCAASGGSLSNYVLGWFRQAPGKEREFVAAINWRGDITIGPPNVEGRFTISRDNAKNTGYLQMNSLAPDDTAVYYCGAGTPLNPGAYIYDWSYDYWGRGTLVTVSSGGC
modifications: bisM6P-PEG4-maleimide conjugated to the thiol of the C-terminal Cys (-GGC) of the building block (SEQ ID NO.: 175); DOL by mass spec 1.00
In test [1], B3 came in with a decrease in internalization potency on K-562 cells against the 3x bis-M6P conjugates of 20 fold and an internalization potency on K-562 cells, EC50 [M] (HSA-pHAb, flow cytometry) of 5.64e-08 M.
